Reference: publication PMC10106861

How the values were obtained:
[1] = target: GhWRKY41 full length as GhWRKY41-NLuc and GhWRKY41-CLuc, expressed in cotton protoplasts (Gossypium hirsutum); experiment: split reporter
[2] = target: GhWRKY41-Myc fusion protein (Gossypium hirsutum); experiment: immunoprecipitation and Western blot

Substance | fold luciferase activity (after V. dahliae supernatant) [1] [fold] | fold luciferase activity (after chitin solution) [1] [fold] | fold luciferase activity over the negative control (normal condition) [1] [fold] | stoichiometry N [2]
GhWRKY41 full length as GhWRKY41-NLuc and GhWRKY41-CLuc, expressed in cotton protoplasts (natural protein) | 23 | 27 | 10 | 
GhWRKY41-Myc fusion protein (natural protein) |  |  |  | 2
